T1: hu-CD96 isoform 2 on CHO cells (human, UniProt P40200 22-585)
T1 construct: also called CHO-CD96 (isoform 2); CD96-CHOs
T1 sequence: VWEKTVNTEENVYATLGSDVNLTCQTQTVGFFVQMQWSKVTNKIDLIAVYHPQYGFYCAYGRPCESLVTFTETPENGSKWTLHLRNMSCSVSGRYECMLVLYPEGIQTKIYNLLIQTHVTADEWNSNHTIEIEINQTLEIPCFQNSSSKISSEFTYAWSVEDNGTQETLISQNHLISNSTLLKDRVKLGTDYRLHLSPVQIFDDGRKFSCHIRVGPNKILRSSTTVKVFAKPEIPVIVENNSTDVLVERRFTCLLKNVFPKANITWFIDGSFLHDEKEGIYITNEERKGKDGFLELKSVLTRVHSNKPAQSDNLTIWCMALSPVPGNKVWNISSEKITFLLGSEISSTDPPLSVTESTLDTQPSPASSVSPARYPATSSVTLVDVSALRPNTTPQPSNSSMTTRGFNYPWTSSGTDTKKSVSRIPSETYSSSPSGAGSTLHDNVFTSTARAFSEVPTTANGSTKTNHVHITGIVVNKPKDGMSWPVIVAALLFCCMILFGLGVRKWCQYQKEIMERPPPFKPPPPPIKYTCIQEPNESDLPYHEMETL

T2: cy-CD96 (soluble, extracellular domain) (cynomolgus monkey, UniProt P40200 22-516 (human entry), biotinylated in Octet and blocking ELISA)
T2 construct: the assays name only cy-CD96; also called biotinylated cy-CD96
T2 chain: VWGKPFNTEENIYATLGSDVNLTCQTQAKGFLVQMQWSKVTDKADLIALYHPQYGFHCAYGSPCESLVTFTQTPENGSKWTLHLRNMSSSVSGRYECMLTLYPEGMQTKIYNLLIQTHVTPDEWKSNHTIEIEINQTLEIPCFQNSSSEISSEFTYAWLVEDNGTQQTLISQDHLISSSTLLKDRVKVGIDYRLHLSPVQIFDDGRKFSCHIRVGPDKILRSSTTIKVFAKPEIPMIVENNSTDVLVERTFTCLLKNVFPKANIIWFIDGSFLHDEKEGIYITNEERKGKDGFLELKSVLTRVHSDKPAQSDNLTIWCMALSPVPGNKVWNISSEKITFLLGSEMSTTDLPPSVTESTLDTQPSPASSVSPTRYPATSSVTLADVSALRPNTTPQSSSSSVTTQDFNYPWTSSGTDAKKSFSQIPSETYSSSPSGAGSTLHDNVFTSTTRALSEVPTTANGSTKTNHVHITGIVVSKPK

B1: 7E5, purified hybridoma antibody (antibody, V domains shown)
VH: QVQLKESGPGLVAPSQSLSIICTVSGFSLTNYGIHWIRQPPGKGLEWLGIIWAGGSTNYNSALMSRLTISKDNSKSQVFLKMNSLQTNDTAIYYCARVSMMGFAYWGQGTLVTVSA
VL: QAVVTQESALTTSPGETVTLTCRSSTGAVTTSNYANWVQEKPDHLFTGLIGGTNNRAPGVPARFSGSLIGDKAALTITGAQTEDEAIYFCSLWYGSHWVFGGGTKLTVL
notes: murine hybridoma IgG
B2: 10G1 (clone 10G1.3G8), purified hybridoma antibody (antibody, V domains shown)
VH: QIQLVQSGPELKKPGETVKISCKASGYPFTTYGMSWVKQAPGKGLKWMGWINTDSGVPTYADDFKGRFAFSLETSANTAYLQINSLKNEDAATYFCARNIYYGWGNFDYWGQGTILTVSS
VL: DILMTQSPTTLSVTPGETVSLSCRASQDIYRNLHWYQQKSQGTPRLLIKHASDSISGIPSRFTGSGSGTDFTLSINSVKPEDEGIYYCLQGYSMPYTFGGGTKLEIK
notes: murine hybridoma IgG
B3: mAb1.v7 IgG (humanized 12F8) (antibody, V domains shown)
VH: EVQLVQSGAEVKKPGASVKVSCKASGFTFTNNWMHWVRQAPGQGLEWIGMIHPNSGITNINEKFKNRVTMTTDTSTSTAYMELRSLRSEDTAVYYCRSDGTYEGYFDYWGQGTLVTVSS
VL: DIQLTQSPSSLSASVGDRVTITCKASQNVGTAIVWYQQKPGKAPKVLIYSASTRYTGVPSRFSGSGSGTDFTLTISSLQPEDFATYYCQQYSSSPLTFGQGTKVEIKG
notes: human IgG1 N297G
B4: 9H4, purified hybridoma antibody (antibody, V domains shown)
VH: EVQLLETGGGLVKSGGSLKLSCAASGFTFSDYYMYWVRQTPEKRLEWVAAISDDGTYTYYPDSVKGRFTISRDNANNYLYLQMSSLKSEDTAIYYCAKAGSYDYFDVWGAGTTVTVSS
VL: DIVLTQSPASLAVSLGQRAIISCKASQSVTFADTGLMHWYQQKPGQQPKLLIYRASNLEVGVPTRFSGSGSGTDFTLNIHPVEEEDVATYYCQQSREYPWTFGGGTKLEIK
notes: murine hybridoma IgG
B5: mAb1.v7.2 Fab (Fab, V domains shown)
VH: EVQLVQSGAEVKKPGASVKVSCKASGFTFTNNWRHWVRQAPGQGLEWIGMIHFNSGITNINEKFKNRVTMTTDTSTSTAYMELRSLRSEDTAVYYCRSDGVYEGYFDYWGQGTLVTVSS
VL: DIQLTQSPSSLSASVGDRVTITCKASQNVGTAIVWYQQKPGKAPKVLIYSASTRYTGVPSRFSGSGSGTDFTLTISSLQPEDFATYYCQQYSSSPLTFGQGTKVEIK
notes: also called M34R/P52aF/T97V
B6: mAb1.v7.48 Fab (Fab, V domains shown)
VH: EVQLVQSGAEVKKPGASVKVSCKASGFTFTNRWMHWVRQAPGQGLEWIGMIHHNSGITNINEKFKNRVTMTTDTSTSTAYMELRSLRSEDTAVYYCRSDGVYEGYFDYWGQGTLVTVSS
VL: DIQLTQSPSSLSASVGDRVTITCKASQNVGTAIVWYQQKPGKAPKVLIYSASTRYTGVPSRFSGSGSGTDFTLTISSLQPEDFATYYCQQYSSSPLTFGQGTKVEIK
notes: also called N32R/P52aH/T97V
B7: mAb1.v7.16 Fab (Fab, V domains shown)
VH: EVQLVQSGAEVKKPGASVKVSCKASGFTFTNNWRHWVRQAPGQGLEWIGMIHPNSGITNINEKFKNRVTMTTDTSTSTAYMELRSLRSEDTAVYYCRSDGVYEGYFDYWGQGTLVTVSS
VL: DIQLTQSPSSLSASVGDRVTITCKASQNVGTAIVWYQQKPGKAPKVLIYSASTRYTGVPSRFSGSGSGTDFTLTISSLQPEDFATYYCQQYSSSPLTFGQGTKVEIK
notes: also called M34R/T97V
B8: mAb1.v7.70 Fab (Fab, V domains shown)
VH: EVQLVQSGAEVKKPGASVKVSCKASGFTFTNRWMHWVRQAPGQGLEWIGMIHANSGITNINEKFKNRVTMTTDTSTSTAYMELRSLRSEDTAVYYCRSDGVYEGYFDYWGQGTLVTVSS
VL: DIQLTQSPSSLSASVGDRVTITCKASQNVGTAIVWYQQKPGKAPKVLIYSASTRYTGVPSRFSGSGSGTDFTLTISSLQPEDFATYYCQQYSSSPLTFGQGTKVEIK
notes: also called N32R/P52aA/T97V
B9: mAb1.v7.9 Fab (Fab, V domains shown)
VH: EVQLVQSGAEVKKPGASVKVSCKASGFTFTNNWRHWVRQAPGQGLEWIGMIHMNSGITNINEKFKNRVTMTTDTSTSTAYMELRSLRSEDTAVYYCRSDGVYEGYFDYWGQGTLVTVSS
VL: DIQLTQSPSSLSASVGDRVTITCKASQNVGTAIVWYQQKPGKAPKVLIYSASTRYTGVPSRFSGSGSGTDFTLTISSLQPEDFATYYCQQYSSSPLTFGQGTKVEIK
notes: also called M34R/P52aM/T97V

Consider nine molecules from patent US12365732 (23ANDME, dated 2025).

The target of the first test is T1, hu-CD96 isoform 2 on CHO cells. Put plainly: FACS, Ab 0.08 nM. As for the experimental part: Isoform 1 of hu-CD96 (Origene, catalog #RC213845) was transiently expressed in HEK293T cells following standard lipofectamine or Fugene transfection protocol. […] Cells were washed, and binding was detected by incubation with anti-mouse IgG-FITC (Biolegend, catalog #406001) for 20 minutes at 4° C. Cell binding was analyzed by flow cytometry with a CytoFLEX (Beckman Coulter). Binding curves were calculated as a percentage of cells positive for bound antibody.
Isoform 2 of hu-CD96 (DNA construct: Origene, catalog #RC221005) was expressed on a single-cell-clone-derived CHO stable cell line. Binding of the anti-CD96 antibodies to the CHO cells were determined as described above with isoform 1 of hu-CD96.
On to B1, for which the “% positive” value was 24.6%.
Same read-out and setting: under B2 stands 9.4%; under B3, 1.4%; under B4, 3.1%.

For a further test, the target named is T2, cy-CD96 (soluble, extracellular domain). Put plainly: ELISA, blocks biotin-CD96 binding to coated hu-CD155-mFc. As for the experimental part: The selected 5 affinity matured Fab variants of mAb1.v7 Fab were assayed for blocking of human CD155 (hu-CD155) receptor by ELISA as follows. Briefly, 96-well MAXISORP® flat bottom plates (Thermofisher, Cat #439454) were coated overnight at 4° C. with 2 µg/mL goat anti-mouse Fc (Thermofisher, Cat #31168) in PBS. After removing the coating solution, unspecific binding was blocked with PBS containing 1% bovine serum albumin (BSA) and incubation at room temperature for one hour. Plates were then washed five times in PBS with 0.05% TWEEN®-20 (wash buffer) and added […] hu-CD155-mFc in PBS for 1 hour in room temperature. During blocking period, 50 µL/well of 4 nM biotinylated hu-CD96 or 40 nM biotinylated cy-CD96 with serial dilution of the Fab variants 50 µL/well (starting at 2 µM, 1:3 dilution) for two hours at room temperature with PBS containing 0.5% BSA and 0.05% Tween 20 (ELISA buffer) in NUNC F plate (Thermofisher, Cat #269620). Then transferred the antigen-antibody mix solution 80 µL/well into hu-CD155-mFc coated wells at room temperature for 15 min. Plates were then washed with wash buffer to which was added 50 µL/well Streptavidin poly-HRP (Thermofisher, Cat #21140) diluted 1:5000 in ELISA buffer at room temperature for one hour with agitation. […] Enzymatic color development was stopped with 50 µL/well of TMB stop solution (VWR, Cat #95059-200). Plates were analyzed with a SpectraMax i3X plate reader (Molecular Devices) at 450 nm. […] The blocking $IC50$ values for the mAbv1.7 and the 5 selected affinity matured Fab variants (mAb1.v7.2, mAb1.v7.9, mAb1.v7.16, mAb1.v7.48, mAb1.v7.70) are summarized in Table 10 (above).
Turning to B5, the IC50 came out at 2.17 nM.
In the case of B6, the IC50 is 4.8 nM.
Still for that read-out and setting: the result for B7 reads 1.42 nM; that for B8, 2 nM; that for B9, 3.18 nM.
